According to PMC2113458:

Biological target: platelet membrane actin (human (endogenous in platelets)) (UniProt P60709)
Assay: SEC

glycoprotein IIb, form in the Triton X-100-insoluble fraction of platelet plasma membranes (natural protein)
percent of surface GPIIb and III associated with the actin-rich void volume peak: > 85%
